Patent US12312417B2, “Binding proteins 1” (Nucleus Therapeutics Pty. Ltd., priority 2017, dated 2025)

Tests used:
[1] = system: GBM cells extracted from human GBM tumours; test: Orthotopic mouse model of GBM; format: in vivo
Procedure: An orthotopic mouse model of GBM was generated by intracranial injection of GBM cells extracted from human GBM tumours. Once the tumours developed in the brain, mice were treated by tail vein injection of control or di-scFv variant 13 (SEQ ID NO: 41), and effect of di-scFv on reduction of tumour volume was evaluated by extraction of tumours. […] To confirm this, tumours and normal brain were probed for di-scFv by protein L immunostaining.
Mean survival data reflected these trends (83 days±3.2 days for di-scFv treated mice, 71 days±1.2 days for controls) (FIG. 16E). Statistical analysis indicated a significant difference between the two groups, with P value=0.004.

[2] = system: BRCA2-deficient DLD1 colon cancer cells; test: Phospho-53BP1 foci accumulation; format: cell-based
Procedure: (§1) A matched pair of BRCA2-proficient and deficient DLD1 colon cancer cells and PTEN-proficient and deficient U251 human glioma cells were treated with control media or media containing 10 μM di-scFv variant 13 (SEQ ID NO: 41), 5 nM olaparib, or combination treatment.

[3] = system: BRCA2-proficient DLD1 colon cancer cells; test: Cell viability by Trypan blue exclusion assay; format: cell-based; conditions: 7 days later
Procedure: (§2) Next, a matched pair of BRCA2-proficient and deficient DLD1 colon cancer cells was treated with control media or media containing Variants 10, 13, 15, or 16. Cell viability was determined 7 days later by Trypan blue exclusion assay and by direct visualization of cell morphology by light microscopy. […] Representative light microscope images shown the changes in morphology in the BRCA2-deficient cancer cells treated with the variants are shown in FIG. 10, Panel A. Quantitative analysis of the cell survival by Trypan blue exclusion assay is shown in FIG. 10, Panel B.

[4] = system: BRCA2-deficient DLD1 colon cancer cells; test: Cell viability by Trypan blue exclusion assay; format: cell-based; conditions: 7 days later
Procedure: as §2

[5] = system: HDR-proficient DLD1 cells; test: Cell death in HDR-proficient cells, di-scFv with PARP inhibitor; format: cell-based; conditions: 5 nM olaparib, 10 μM di-scFv, or both
Procedure: Homology-directed repair (HDR) deficient BRCA2-DLD1 cells and PTEN-U251 cells were treated with control, 5 nM olaparib, 10 μM di-scFv, or 10 μM di-scFv+5 nM olaparib. Surviving fraction was determined by colony formation assay.
It was then determined whether the combination of di-scFv and olaparib is simply universally cytotoxic, regardless of DNA repair status. To evaluate this possibility, HDR-proficient DLD1 cells were treated with the above regimen to confirm selectivity of combination therapy to HDR-deficient malignant cells.

[6] = system: MCF-7 cells; test: Nuclear penetration by protein L immunostain of fixed cells; format: cell-based
Procedure: (§3) DLD-1 and MCF-7 cells were treated with control or di-scFv (SEQ ID NO: 41), and nuclear penetration was evaluated by protein L immunostain of fixed cells.

[7] = system: DLD-1 cells; test: as above; format: cell-based
Procedure: as §3

[8] = system: PTEN-deficient U87 human glioma cells; test: Cell viability by Trypan blue exclusion assay; format: cell-based; conditions: 7 days after treatment; relative to control treated cells
Procedure: Cell viability of PTEN-deficient U87 human glioma cells was also assessed following treatment with control media or media containing Variants 10, 13, 15, or 16. Cell viability was determined 7 days after treatment using Trypan blue exclusion assay and by direct visualization of cell morphology by light microscopy.

[9] = system: PTEN-deficient U251 human glioma cells; test: Phospho-53BP1 foci accumulation (DNA damage); format: cell-based; conditions: for mean number of phospho-53BP1 foci per cell: PTEN-deficient U251
Procedure: A matched pair of PTEN-proficient and deficient U251 human glioma cells were treated with control media or media containing Variant 10, 11, 13, 15, or 16 for twenty-four hours. Cells were then washed, fixed, blocked, and then probed with an anti-phospho-53BP1 antibody overnight. Cells were then washed and incubated with an AlexaFluor555-conjugated secondary antibody. Finally, cells were washed, counterstained with DAPI, and visualized under a fluorescence microscope. Images were saved and evaluated by CellProfiler to determine mean number of phospho-53BP1 foci per cell.
as §1

[10] = system: DLD1 colon cancer cells; test: Alkaline phosphatase-based survey of nuclear penetration; format: cell-based; conditions: cells treated for one hour; right shift of histogram peak
Procedure: DLD1 colon cancer cells were treated with control media or each of the indicated variants for one hour. Cells were then washed, fixed, blocked with 1% BSA-TBST, and then probed with protein L for one hour. Cells were then washed and incubated with an anti-protein L primary antibody for one hour. After another round of washing cells were incubated with an alkaline phosphatase-conjugated secondary antibody for one hour. Finally, cells were washed and signal was developed by addition of NBT/BCIP. Dark stain indicates location of the variants.
Raw integrated density values reflecting nuclear alkaline phosphatase staining in the DLD1 cells from the experiment in FIG. 3 were obtained by analysis using ImageJ Boxplots of distributions of values are presented for each variant in FIG. 4.
Histogram plots of cell counts versus nuclear staining intensity (represented as reciprocal intensity in arbitrary units) are shown in FIG. 5.

[11] = system: human GBM cancer stem cells (CSCs) grown as tumour spheres; test: GBM tumour sphere penetration and sphere volume; format: cell-based
Procedure: GBM cancer stem cells extracted from primary human GBM tumours from patients and grown as spheres were treated with control or di-scFv (SEQ ID NO: 41), and the effect of dose and incubation time on reduction of sphere volume was evaluated by confocal micrographs of DX1-rhodamine cellular penetration into GBM cells. Tumour spheres are recognised as a useful tool for pre-clinical studies as they retain tumour heterogeneity and more closely represent the original patient tumour.

[12] = system: Primary human glioblastoma (GBM) cancer cells; test: Live cells by trypan blue staining in primary GBM explants; format: cell-based; conditions: seven patient explants; percentage of live cells by trypan blue
Procedure: Primary human glioblastoma (GBM) cancer cells extracted from primary human GBM tumours from patients were treated with control or di-scFv (SEQ ID NO: 41), and percentage of live cells was evaluated by trypan blue staining.

B1: Variant 13: cell penetrating anti-DNA humanized di-scFv, SEQ ID NO: 41 (protein)
scFv: DIQMTQSPSSLSASLGDRATITCRASKTVSTSSYSYMHWYQQKPGQPPKLLIKYASYLESGVPSRFSGSGSGTDFTLTISSLQPEDAATYYCQHSREFPWTFGGGTKVEIKRADAAPGGGGSGGGGSGGGGSEVQLVESGGGLVQPGGSLRLSCAASGFTFSNYGMHWVRQAPGKGLEWVSYISSGSSTIYYADSVKGRFTISRDNAKNSLYLQMNSLRAEDTAVYYCARRGLLLDYWGQGTTVTVSSASTKGPSVFPLAPLESSGSDIQMTQSPSSLSASLGDRATITCRASKTVSTSSYSYMHWYQQKPGQPPKLLIKYASYLESGVPSRFSGSGSGTDFTLTISSLQPEDAATYYCQHSREFPWTFGGGTKVEIKRADAAPGGGGSGGGGSGGGGSEVQLVESGGGLVQPGGSLRLSCAASGFTFSNYGMHWVRQAPGKGLEWVSYISSGSSTIYYADSVKGRFTISRDNAKNSLYLQMNSLRAEDTAVYYCARRGLLLDYWGQGTTVTVSS
modifications: Variant 13
median survival ([1]; group of 7 mice): 87 days | median survival longer than controls ([1]; group of 7 mice, controls median 72 days): more than 20% | crossing of the blood brain barrier ([1]; mouse, in vivo): successfully crossed the blood brain barrier | di-scFv in GBM tumour cells by protein L immunostaining ([1]; mouse, in vivo): detected in the nuclei of GBM tumour cells | di-scFv in adjacent normal brain cells by protein L immunostaining ([1]; mouse, in vivo): not evident | toxicity or weight loss ([1]; survival study mice): No toxicity or weight loss | TUNEL staining (incidence of apoptosis in tumours) ([1]; tail vein injection): increased incidence of apoptosis | glioblastoma tumour size smaller than in control mice ([1]; tail vein injection, brain sections): more than 40% | mean number of phospho-53BP1 foci per cell ([2]; BRCA2-deficient DLD1, 10 μM di-scFv, 5 nM olaparib): increased the number of phospho-53BP1 foci | percentage of P53BP1-positive cells ([2]; HDR-deficient DLD1, 24 hour): increased | cell viability / toxicity [3]: not toxic | cell viability / toxicity [4]: killed by the variants | cell death [5]: No effect on cell death | nuclear penetration [6]: successfully penetrated | nuclear penetration [7]: successfully penetrated | cell viability [8]: reductions in cell viability | percentage of P53BP1-positive cells ([9]; HDR-deficient U251, 24 hour): increased | mean number of phospho-53BP1 foci per cell ([9]; 10 μM di-scFv, 5 nM olaparib): increased the number of phospho-53BP1 foci | mean number of phospho-53BP1 foci per cell ([9]; twenty-four hours, vs control media): increased the number of foci | nuclear penetration relative to the yeast prototype (histogram of cell counts versus nuclear staining intensity) [10]: notable right shift and narrowing of distributions | cellular penetration in GBM spheres ([11]; confocal micrographs, DX1-rhodamine): demonstrated cellular penetration in GBM spheres | sphere volume ([11]; effect of dose and incubation time): reduced sphere volume in dose-dependent and time-dependant manner | glioblastoma tumour explants showing significant cancer cell death [12]: Five of the seven
